Experimental data as given in the nanobody polyreactivity screen of Harvey et al. (2022).

Test: yeast display, Sf9 membrane polyspecificity reagent, FACS + sequencing; frameworks hold sequencing errors
Summary of the method: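 A nanobody's polyreactivity label depends on the gate it was sorted from. Yeast display cells were stained with 10% biotinylated, detergent-solubilized Sf9 membrane reagent for 1 hour at 4 °C, enriched on streptavidin microbeads and sorted by FACS. The low and high (top ~1%) gates were set on anti-HA fluorescence for expression and streptavidin fluorescence for reagent binding.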

Row | Sequence | polyreactivity (PSR sort gate)
1 | QVQLVESGGGLVQAGGSLRLSCAASGITFKYYTMGWYRQAPGKERELVAAISRSGGSTYYADSVKGRFTISRDNAKNTVYLLMNSLKPEDTAVYYCAGERGAYRGVTFTYGYWGQGTQVTVSS | high polyreactivity
2 | QVQLVESGGGLVQAGGSLRLSCAASGITFKYYVMGWYRQAPGKERELVARITRRSGSTYYADSVKGRFTISRDNAKNTVYLQMNSLKPEDTAVYYCAASPHSRSDYGYWGQGTQVTVSS | high polyreactivity
3 | QVQLVESGGGLVQAGGSLRLSCAASGITFLNYAMGWSRQEPGKERELVAAITSGGSTYYADSVKGRFTITRDNAKNTVYLQMNSLKPEDTAVYYCAADGDSLPYSFWWQIRLDYWGQGTVVTVSS | low polyreactivity
4 | QVQLVESGGGLVQAGGSLRLSCAASGITFLRYAMGWYRQAPGKERELVATIRTGGTTNYADSVKGRFTISRDNAKNTVYLLMISLKPEDTAVYYCAVDWSRQAHKFNYWGQGTQVTVSS | high polyreactivity
5 | QVQLVESGGGLVQAGGSLRLSCAASGITFLVYVMGWYIQAPGKERELVAAISSGGSTYYADSVKGRFTISRDKAKNTVYLQMNSLKPEDTAVYYCAAERKLYGLYDYWGQGTQVTVSS | low polyreactivity
6 | QVQLVESGGGLVQAGGSLRLSCAASGITFLWNVMGWYRQAPGKERELVATITSIGGITNYADSVKGRFTISRDNAKNTVYLQMNSLKPEDTAVYYCARDDRDIRGESGREGFLYDYWGQGTQVTVSS | low polyreactivity
7 | QVQLVESGGGLVQAGGSLRLSCAASGITFNPNAMGWYRQAPGKERELVAVITYRGGSTYYADSVKGRFTISRDNAKNTVYLQMNSLKPEDTAVYYCAAQYIGWHLYWYDYWGQGTQVTVSS | low polyreactivity
8 | QVQLVESGGGLVQAGGSLRLSCAASGITFNRYSMGWYRQAPGKERELVARISLRGGNTYYADSVKGRFTISRDNAKNTVYLQMNSLKPEDPAVYYCNADLYRQYASRYHYWGQGTQVTVSS | high polyreactivity
9 | QVQLVESGGGLVQAGGSLRLSCAASGITFNSYAMGWYRQAPGKERELVAAISGSGSSTYYADSVKGRFTISRDNAKNTVYLQMNSLKPEDTAVYYCAATGYSSWTYYTHEYWGQGTQVTVSS | low polyreactivity
10 | QVQLVESGGGLVQAGGSLRLSCAASGITFNSYAMGWYRQAPGKERELVAAISWSGGSTYYADSVKGRFTISRDNAKNTVYLQMNSLKPEDTAVYYCNAEYRYYQKTPGRYTNVEYDYWGQGTQVTVSS | low polyreactivity
11 | QVQLVESGGGLVQAGGSLRLSCAASGITFNTYAMGWYRHAPGKERELVAVITWSDGGTYYADSVKGRFTISRDNAKNTVYLQMNSLKPEDTAVYYCAADYDWGYDYWGQGTQVTVSS | low polyreactivity
12 | QVQLVESGGGLVQAGGSLRLSCAASGITFNTYAMGWYRQAPGKERELVAVITWSDGGTYYADSVKGRFTISRDNAKNTVYLQMNSLKPEDTAVYYCAADYYWGYDYWGQGTQVTVSS | low polyreactivity
13 | QVQLVESGGGLVQAGGSLRLSCAASGITFPANAMGWYRQAPGKERELVADISESDGSTYYADSVKGRFTISLDNAKNTVYLQMNSLKPEDTAVYYCNAEWTSFDWGQGTQVTVSS | low polyreactivity
14 | QVQLVESGGGLVQAGGSLRLSCAASGITFPANAMGWYRQAPGKQWELVAAISSYGGSTYYADSVKGRFTISRDNEKNTVDLQMNSLKPEDTAVYYCAAYLSSLGRKYYYWGQGTQVTVSS | high polyreactivity
15 | QVQLVESGGGLVQAGGSLRLSCAASGITFPRYTMGWYRQAPGTERELVAAISSGGSTYYADSVKGRFTISRDNAKNTVYLQMNSLKPEDTAVYYCNAEVPYWYYIYDYWGQGTQVTVSS | high polyreactivity
16 | QVQLVESGGGLVQAGGSLRLSCAASGITFPRYVMGWYRQAPGKEREFVAAINYSGGRTYYADSVKGRFTISRDNAKNTVYLQMNSLKPEDTAVYYCAVDLHVWPFWYDYWGQGTQVTVSS | high polyreactivity
17 | QVQLVESGGGLVQAGGSLRLSCAASGITFPYYAMGWYRQAPGKERELVAAISLSGGTTYYADSVKGRFTISRDNAKNTVYLQMNSLKPDDTAVYYCAARSSKFVTSNRYDYWGQGTQVTVSS | high polyreactivity
18 | QVQLVESGGGLVQAGGSLRLSCAASGITFPYYAMGWYRQAPGKERELVAAITTGGGSTYYADSVKGRFTISRDNAKNTVYLQMNSLKPEDTAVYYCAAANLRARTGPRRGYEYWGQGTQVTVSS | high polyreactivity
19 | QVQLVESGGGLVQAGGSLRLSCAASGITFPYYVMGWYRQAPGKERELVAAISKSVGRTYYADSVKGRFTISRDNAKNTVYLQMNSLKPEDTAVYYCAAYSSYYVHRFQHYDYWGQGTQVTVSS | high polyreactivity
20 | QVQLVESGGGLVQAGGSLRLSCAASGITFQRYVLGWYRQAPGKERELVAAISFTASSTYYADSVKGRFTISRDYAKKTVYLQMNSLKPEDTAVYYCAADGSVPKYVPYPRYYGYGYWGQGTQVTVSS | high polyreactivity
21 | QVQLVESGGGLVQAGGSLRLSCAASGITFQYYAMGWYRQAPGKERELFARISSSGGRTFYADSVKGRFTISRDNAKNTVYLQMNSLKQEDTAVYYCAAGSLSLSNSTVWFEYDYWGQGTQVSVSS | high polyreactivity

Row | Sequence | polyreactivity (PSR sort gate)
22 | QVQLVESGGGLVQAGGSLRLSCAASGITFQYYAMGWYRQAPGKERELVAAISSGGSTYYADSVKGRFTISRDNAKNTVYLQMNSLKPEDTAVYYCAAKRVFFGLNYDYWGQGTQVTVSS | high polyreactivity
23 | QVQLVESGGGLVQAGGSLRLSCAASGITFRANAKGWYRQAPGKERELVAAISARGGSTYYADSVKGRFTISRDNAKNTVYLQMNSLNPEDTAVYYCAKELSQGMRYDYWGQGTQVTVSS | high polyreactivity
24 | QVQLVESGGGLVQAGGSLRLSCAASGITFRAYVMGWYRQEPGKERELVAAINRRGGSTYYADSVKGRFTISRDNAKNTVYLQMNSLKPEDTAVYYCAAGLYSTGYTYDYWGQGTQVTVSS | high polyreactivity
25 | QVQLVESGGGLVQAGGSLRLSCAASGITFRGYAMGWYRQAPGKERELVAAITGSGTSTYADSVKGRFTISRGNAKNTVYLQMNSLKPEDTAVYYCAADTYDPFYYGYGYWGQGTQVTVSS | low polyreactivity
26 | QVQLVESGGGLVQAGGSLRLSCAASGITFRGYAMGWYRQAPGKERELVASITNTDSTYYADSVKGRFTISRDNAKNTVYLQMNSLKPEDTAVYYCNAEADPYSVDYDYWGQGTQVTVSS | high polyreactivity
27 | QVQLVESGGGLVQAGGSLRLSCAASGITFRKYVMGWYRPAPGKERELVAAITRGGSTNYADSVKGRFTISRDNAKNTVYLQMNSLKPEDTAVYYCATRQSWYPRWMDYWGQGTQVTVSS | high polyreactivity
28 | QVQLVESGGGLVQAGGSLRLSCAASGITFRLYAMGWYRQAPGKERELVAAISKRGGSTYYADSVKGRFTISRDNAKNTVYLQMNSLKPEDTAVYYCAADSGWEHRYDYWGQGTQVTVSS | high polyreactivity
29 | QVQLVESGGGLVQAGGSLRLSCAASGITFRNYAMVWSRQAPGKERELVADITTGGSTYADSVKGRFTISRDNAKNTVYLQMISLNPEDTAVYYCAADRDFRTPRLYYWGQGTQVTVSS | low polyreactivity
30 | QVQLVESGGGLVQAGGSLRLSCAASGITFRQYAMGWYRQAPGKERELVAVITSRGGTTYYAVSVKGRFTISRDNAKNTVYLQMNSLKPEDTAVYYCAARYPSYDFYYWGQGTQVTVSS | high polyreactivity
31 | QVQLVESGGGLVQAGGSLRLSCAASGITFRRKAMGWYRQAPGKERELVAAISASGTRTYYADSVKGRLTISRDNAKNTVYLQMNSLKPEDTAVYYCATRVTSRSSGFDYWGQGTQVTVSW | high polyreactivity
32 | QVQLVESGGGLVQAGGSLRLSCAASGITFRRYAMGWYRPAPGKERELVAVISVSGGRTHYADSVKGRFTISRDNAKNTVYLQMNSLKPEDTAVYYCAAQFSYRYYTDEVGYWGQGTQVTVSS | high polyreactivity
33 | QVQLVESGGGLVQAGGSLRLSCAASGITFRRYAMGWYRQAPGKERELVASITSNGGSTYYADSVKGRFTISRDTAKNTVYLQMNSLKPEDTAVYYFAADFAVGQWLTQTSVEYDYWGQGTQLTVSS | high polyreactivity
34 | QVQLVESGGGLVQAGGSLRLSCAASGITFRRYAMGWYRQAPGKERELVAVISVSGGRTHYADSVKGRFTISRDNAKNTVYLQMNSLKPEDTAVYYCAAQFSYRYYTDEVGYWGQGTQVTVSS | high polyreactivity
35 | QVQLVESGGGLVQAGGSLRLSCAASGITFRSYAMGWYRQAPGKERELVAAIRSGGSTSYADSVKGRFTISRDNAKTTVYLQMNSLKPEDTAVYYCAAGGYVPLPDITFWKFGYWGQGTQVTVSS | low polyreactivity
36 | QVQLVESGGGLVQAGGSLRLSCAASGITFRSYAMGWYRQAPGKERELVAAISSTGRTYYADSVKGRFTISRDNAKNTVYLQMNSLKPEDTAGYYCNAKRYIWGQGTQVTVSS | high polyreactivity
37 | QVQLVESGGGLVQAGGSLRLSCAASGITFRVYAMGWYRQAPGKERELVADISGTGGSTYYADSVKGRFTISRDYAKNTVYLQMNSLKPEDTAVYYCAAVYGFYYSFLQDSYGYWGQGTQVTVSS | low polyreactivity
38 | QVQLVESGGGLVQAGGSLRLSCAASGITFRWNAMGWYRQAPGKERELVAAITTRGGGTYYADSVKGRFTISRDNAKNTVYLQMNSLKPEDTAVYYCGAKKSRYPYNYWGQGTQVTVSS | high polyreactivity
39 | QVQLVESGGGLVQAGGSLRLSCAASGITFRYYAMGWSRQAPWKERELVAVISSTGITNYADSVKGRFTISRDNAKNTVYLQMNSLKPEDTAVYYCAAGLWYSYDYWGQGTQVTVSS | high polyreactivity
40 | QVQLVESGGGLVQAGGSLRLSCAASGITFRYYAMGWYRQAPGKERELVAAISIRGRTYYADSVKGRFTISRDNAKNTVYLQMNSLKPEDTAVYYCAAVKRVVAFDYWGQGTQVTVSS | low polyreactivity
41 | QVQLVESGGGLVQAGGSLRLSCAASGITFRYYTMGWYRQAPGKERELVAAISSSGGSTYYADSVKGRFTISRDNAKNTVYLQMNSLKPEDTAVYYCAAESKYATSSPRRDYWGQGTQVTVSS | high polyreactivity
